Measured values published in US11807881B2, “Polypeptide, fusion polypeptide, and antibiotic against gram-negative bacteria comprising same” (priority 2020, dated 2023).

Legend:
Type in all cases: cell-based
Klebsiella pneumoniae = test: CFU reduction evaluation; conditions: Klebsiella pneumoniae (ATCC 2208); 2 μM, 2 hours
Procedure: (§1) In order to confirm the killing ability against gram negative bacterium of the fusion polypeptide LNT103 prepared in Example 3.2, CFU reduction evaluation was performed for various gram negative bacterium. In order to perform the CFU reduction evaluation, 2 μM of each of LNT101, LNT102, and LNT103 prepared in Example 3, and 1×10^6 CFU of each of Pseudomonas aeruginosa (PA01; ATCC 15692), Acinetobacter baumannii (ATCC 17978), Escherichia coli (ATCC 8739), Klebsiella pneumoniae (ATCC 13883), and Enterobacter aerogenes (CCARM 16006) were added to reaction buffer (20 mM Tris-Cl, pH7.5) so that the final volume was 200 μl, and it was left at 37° C. for 2 hours. After that, the number of the colonies of each gram negative bacterium was confirmed to compare and evaluate the antibiotic effect of each polypeptide. As a control group, the PBS treatment group (treating PBS in the same volume as the fusion polypeptide) was used.

Escherichia coli = test: CFU reduction evaluation; conditions: E. coli (ATCC 8739); 2 μM, 2 hours
Procedure: as §1

Campylobacter jejuni = test: Spot test (halo zone); parameters: key: ‘◯’ means production of the halo zone; conditions: C. jejuni KCTC 5327
Excerpt: (§2) In the present example, in order to investigate a target bacteria spectrum of the bacteriophage PBPA90 selected in the Examples 1.1 and 1.2 and endolysin LNT101 separated and purifying in the Example 1.3, the antibacterial activity against gram negative bacterium such as Pseudomonas aeruginosa ATCC13388, ATCC9027, ATCC10145, ATCC15692, ATCC15522, ATCC25619, ATCC27853, CCARM2134, CCARM2200, CCARM2029, CCARM2144, CCARM2298, CCARM2326, PR01957, E. coli ATCC8739, Enterobacter cloacae CCARM0252, Klebsiella pneumoniae KCTC2261, Klebsiella aerogenes CCARM16006, Campylobacter jejuni KCTC5327, Cronobacter sakazakii KCTC2949, Salmonella typhimurium ATCC14028, Salmonella enteritidis ATCC13076 was tested.
(§3) The target bacteria spectrum of the bacteriophage PBPA90 and endolysin LNT101 was confirmed by a spot test. For the spot test, bacterium sterilized in 4 ml top agar (1% Tryptone, 0.5% Yeast extract, 0.5% NaCl, 0.7% agar) of 1×10^11 CFU/200 μl were added and poured to a LB plate. After hardening the top agar, the bacteriophage PBPA90 10 μl (1×10^8 PFU/ml) or LNT101 10 μl (2 mg/ml) was spotted, and it was incubated at 37° C. for 18 hours.

Pseudomonas aeruginosa = test: Spot test (halo zone); parameters: key: ‘◯’ means production of the halo zone
Excerpt: as §2, §3

Klebsiella aerogenes = test: Spot test (halo zone); parameters: key: ‘◯’ means production of the halo zone; conditions: K. aerugenes CCARM 16006
Excerpt: as §2, §3

E. coli = test: Spot test (halo zone); parameters: key: ‘◯’ means production of the halo zone; conditions: E. coli ATCC 8739
Excerpt: as §2, §3

Enterobacter cloacae = test: Spot test (halo zone); parameters: key: ‘◯’ means production of the halo zone; conditions: E. cloacae CCARM 0252
Excerpt: as §2, §3

B1: LNT103: fusion polypeptide [Cecropin A]-[linker (GSGSGS)]-[endolysin LNT102]; SEQ ID NO: 15 (MAS, His tag) used in the tests (protein)
chain: MASKWKLFKKIEKVGQNIRDGIIKAGPAVAVVGQATQIAKGSGSGSMGTVLKRGDRGSAVEDLQMKLNVAGYNLSADGIFGGDTEKAVRDVQAGAGLVVDGKVGPKTLYAIAKSATVPAKWEAIPFPTANKSRSAAMPTLNAVGAMTGVDSRLLATFASIESAFDYTVKAKTSSATGWFQFLDATWDDMIKAYGSKYGIPKDPTRALRKDPRANALMGAEFIKGNAAVLRPVINREPSDTDLYLAHFLGAGGAKKFLSADQKTLGEVLFPKPAKANPSIFSNKGVPRTLAEIYKLFEDKVSKHRALEHHHHHH
modifications: synthetic_Fusion Polypeptide LNT103 with MAS, His tag, and extra sequence
CFU Counting result (Klebsiella pneumoniae): 0 log CFU/ml | CFU Counting result (Escherichia coli): 0 log CFU/ml

B2: LNT101: endolysin derived from bacteriophage PBPA90, amino acid sequence SEQ ID NO: 1 (259 aa), purified with 6× His tag (protein)
chain: MGTVLKRGDRGSAVEDLQMKLRVAGYAVSADGIFGGDTEKAVRDFQASKALVVDGKVGPATLAELAKSATVPAKWEAIPFPTANKSRSAAMPTLNAVGAMTGTDSRLLATFASIESAFDYTVKASTSSATGWFQFLDATWDDMIKAHGSKYGIPKDPTRALRKDPRANALMGAEFLKGNAAVLRPVINREPSDTDLYLAHFLGAGGAKKFLSADQKTLGEVLFPKPAKANPSIFSNKGVPRTLAEIYKLFEDKVSKHRA
modifications: 6xHis tag; synthetic_Endolysin LNT101
production of the halo zone (Campylobacter jejuni): ◯ | production of the halo zone (Pseudomonas aeruginosa; P. aeruginosa ATCC 9027): ◯ | production of the halo zone (Pseudomonas aeruginosa; P. aeruginosa ATCC 10145): ◯ | production of the halo zone (Pseudomonas aeruginosa; P. aeruginosa ATCC 13388, 10 μl (2 mg/ml), 37° C. 18 hours): ◯ | production of the halo zone (Pseudomonas aeruginosa; P. aeruginosa ATCC 15522): ◯ | production of the halo zone (Pseudomonas aeruginosa; P. aeruginosa ATCC 15692): ◯ | production of the halo zone (Pseudomonas aeruginosa; P. aeruginosa ATCC 25619): ◯ | production of the halo zone (Pseudomonas aeruginosa; P. aeruginosa ATCC 27853): ◯ | production of the halo zone (Pseudomonas aeruginosa; P. aeruginosa CCARM 2029): ◯ | production of the halo zone (Pseudomonas aeruginosa; P. aeruginosa CCARM 2134): ◯ | production of the halo zone (Pseudomonas aeruginosa; P. aeruginosa CCARM 2144): ◯ | production of the halo zone (Pseudomonas aeruginosa; P. aeruginosa CCARM 2200): ◯ | production of the halo zone (Pseudomonas aeruginosa; P. aeruginosa CCARM 2298): ◯ | production of the halo zone (Pseudomonas aeruginosa; P. aeruginosa CCARM 2326): ◯ | production of the halo zone (Pseudomonas aeruginosa; P. aeruginosa PR1957): ◯ | production of the halo zone (Klebsiella aerogenes): ◯ | production of the halo zone (E. coli): ◯ | production of the halo zone (Enterobacter cloacae): ◯
